Reference: patent publication US20260176358A1 (JIANGSU HENGRUI PHARMACEUTICALS, published 2026)
Blank lines part the entries; values can stand above or below the binder they belong to.

Tests used:
PACAP38 [1] = target: T1, PACAP38 (UniProt P18509 132-169, biotinylated in the ELISAs); assay: competition ELISA, biotinylated PACAP38 to coated VPAC2-Fc
T1 peptide (looked up): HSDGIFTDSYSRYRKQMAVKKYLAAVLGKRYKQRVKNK
Protocol: (§1) The plates were incubated for 1 h and washed, and a horseradish peroxidase-labeled streptavidin secondary antibody was then added. After incubation, color development was performed.

PACAP38 [2] = target: T1, PACAP38; assay: competition ELISA, biotinylated PACAP38 to coated VPAC1-Fc
Protocol: as §1

PACAP38 [3] = target: T1, PACAP38; assay: competition ELISA, biotinylated PACAP38 to coated PAC1-Fc
Protocol: as §1

PACAP38 [4] = target: T1, PACAP38; assay: cell-based or functional assay
hIL5 = hIL5 (human, UniProt P05113 20-134); assay: method of Test Example 4 of WO2021139758
hTSLP = hTSLP (human, UniProt Q969D9 29-159); assay: method of Test Example 4 of WO2021139758

IC50 (PACAP38 [1]): 0.68 nM
IC50 (PACAP38 [2]): 0.53 nM
IC50 (PACAP38 [3]): 0.83 nM
IC50, inhibition of cAMP production in SH-SY5Y cells (PACAP38 [4]): 8.26 nM
B1: P96#-CHI (antibody, human IgG1, kappa, V domains shown)
VH: EVQLQQSGADLVRPGALVKLSCKASGFNIKDYYMHWVKQRPEQGLEWIGWIDPENGNTLYDPKFQDKASITTDTSSNTAYLQLSSLTSEDTAVYYCVFGVMTTVEGDFDYWGQGTALTVSS
VL: QAVVTQESALTTSPGETVTLTCRSSSGTVTTSNYANWVQEKPDHLFTGLIGGTNNRAPGAPARFSGSLIGDKAALTITGAQTEDEAIYFCALWYSNHWVFGGGTKLTVLR
notes: chimeric: murine variable regions fused to human constant regions; also called P96#-CH1

EC50 (hIL5): 9.46 nM
EC50 (hTSLP): 3 nM
B2: HJ-11 (bispecific antibody)
chain 1: not shown
chain 2: DIQMTQSPSSVSASVGDRVTITCRASQDIANYLSWYQQKPGKSPKLLIYGTSNLEVGVPSRFSGSRSGTDFTLTISSLQPEDFATYYCLQDKEFPRTFGGGTKVEIKRTVASSGCPRFLTRPKASVVSVGKDATLSCQIVGNPFPQVSWEKDKQPVTAGVRFRLAQDGDLYRLKILDLQLSDSGQYVCRARNAHGEAFACLGLQVDAEA
chain 3: EVQLVQSGAEVKKPGSSVKVSCKASGYTFSNYLIEWVRQAPGQGLEWIGVIDPGVGDTNYNENFKGRATLTADKSTSTAYIELSSLRSEDTAVYYCAREDNTGTAFDYWGQGTTVTVSSASTKGPSVFPLAPSSKSTSGGTAALGCLVKDYFPEPVTVSWNSGALTSGVHTFPAVLQSSGLYSLSSVVTVPSSSLGTQTYICNVNHKPSNTKVDKKVEPKSCDKTHTCPPCPAPEAAGGPSVFLFPPKPKDTLMISRTPEVTCVVVDVSHEDPEVKFNWYVDGVEVHNAKTKPREEQYNSTYRVVSVLTVLHQDWLNGKEYKCKVSNKALPAPIEKTISKAKGQPREPQVCTLPPSREEMTKNQVSLSCAVKGFYPSDIAVEWESNGQPENNYKTTPPVLDSDGSFFLVSKLTVDKSRWQQGNVFSCSVMHEALHNHYTQKSLSLSPGK
chain 4: SIVMTQTPLSLSVTPGQPASISCKASQSVSSDVTWYLQKPGQSPQLLIYYVSEHYTGVPDRFSGSGYGTDFTLKISRVEAEDVGVYYCQQHHRFPLTFGQGTKLEIKRTVAAPSVFIFPPSDEQLKSGTASVVCLLNNFYPREAKVQWKVDNALQSGNSQESVTEQDSKDSTYSLSSTLTLSKADYEKHKVYACEVTHQGLSSPVTKSFNRGEC

IC50 (PACAP38 [1]): 0.61 nM
IC50 (PACAP38 [2]): 0.53 nM
IC50 (PACAP38 [3]): 0.76 nM
IC50, inhibition of cAMP production in SH-SY5Y cells (PACAP38 [4]): 1.79 nM
B3: P96H1L1 (antibody, human IgG1, kappa, V domains shown)
VH: EVQLVQSGAEVKKPGATVKISCKASGFNIKDYYMHWVQQAPGKGLEWMGWIDPENDNTLYDPKFQDRVTITTDTSTNTAYMELSSLRSEDTAVYYCVFGVMTTVEGDFDYWGQGTTVTVSS
VL: ETVVTQEPSLTVSPGGTVTLTCRSSSGTVTTSNYANWVQQKPGQAFRGLIGGTNNRAPGAPARFSGSLLGGKAALTLSGVQPEDEAEYYCALWYSNHWVFGGGTKLTVLR
